Results published in US20110002929A1 (Ablynx, published 2011).

What was measured:
[1] = target: T1, human RANK-L (human, UniProt O14788 140-317, limits assumed); assay: ELISA (ED50), biotin-hRANK-L on neutravidin
T1 construct: Soluble protein, used coated, biotinylated or labelled in ELISA, AlphaScreen, FMAT and Biacore; also called hRANK-L; soluble human RANK-L
T1 sequence (looked up): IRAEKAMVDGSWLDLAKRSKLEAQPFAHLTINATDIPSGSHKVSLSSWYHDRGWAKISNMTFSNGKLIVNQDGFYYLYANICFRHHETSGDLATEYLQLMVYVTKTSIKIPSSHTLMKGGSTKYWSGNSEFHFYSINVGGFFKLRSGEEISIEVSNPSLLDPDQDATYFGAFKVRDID
Description: (§1) Therefore 2 μg/ml neutravidin was coated overnight at 4° C. The plates were washed 5 times with 300 μl PBS and then blocked with […] 1% casein/PBS for 2 hours at room temperature. […] After extensive washing with PBS, varying concentrations of Nanobodies starting from 500 nM to 160 pM diluted in 1% casein/PBS were added to the wells and the plates were incubated for 1 hour at room temperature. Bound Nanobodies were detected by subsequent incubations of a primary mouse anti-myc antibody and a secondary anti mouse-HRP conjugate (DAKO, Glostrup, Denmark) and using TMB-H2O2 (Pierce, Rockford, Ill., USA) substrate cocktail. The reaction was stopped with H₂SO₄ and the OD was read at 450 nm.

[2] = target: T2, mouse RANK-L (mouse, UniProt O35235 158-316, limits assumed); assay: ELISA, set-up as for human RANK-L
T2 construct: also called murine RANK-L
T2 sequence (looked up): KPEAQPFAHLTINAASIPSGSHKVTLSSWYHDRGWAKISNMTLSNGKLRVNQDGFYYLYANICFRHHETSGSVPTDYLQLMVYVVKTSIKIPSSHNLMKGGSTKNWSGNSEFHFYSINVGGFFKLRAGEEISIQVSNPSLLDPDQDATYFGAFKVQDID
Description: as §1

[3] = target: T1, human RANK-L; assay: AlphaScreen, biotin-hRANK-L / RANK-huFc beads
Description: To this mixture, the RANK acceptor beads and the streptavidin donor beads were added and further incubated for 1 hour at room temperature. Fluorescence was measured by reading plates on the EnVision Multilabel Plate Reader (Perkin Elmer) using an excitation wavelength of 680 nm and an emission wavelength of 520 nm.

Row | Binder | EC50 [1] | binding result [2] | IC50 [3]
1 | RANKL22 (VHH, also called 7D12; not shown: c-myc and His6 tags) VHH: EVQLVESGGGLMQTGGSLRLSCAASERTSRNYGMGWFRQAPGKEREFVAAITSAGGTTYYGDFVKGRFTISRDSAKYTVYLQMNSLKPEDTAVYWCAAKLQIGGRWHNLNDYGYRGQGTQVTVSS | 0.379 nM | no binding (tested: 500 nM to 160 pM) | 3.02 nM
2 | RANKL1 (VHH, not shown: c-myc and His6 tags) VHH: EVQLVESGGGLVQAGGSLRLSCAVSGRTFSSSTMAWFRQPPGGERDFVASISTSGTRTLYADSVKGRFTISRDNAKSTGYLQMNSLKPEDTAVYFCAAVNRRGWEFWRLASGYDYWGLGAQVTVSS | 0.619 nM | no binding (tested: 500 nM to 160 pM) | 0.739 nM
3 | RANKL23 (VHH, also called 9H5; not shown: c-myc and His6 tags) VHH: EVQLVESGGGLVQAGGSLRLSCAASGLTTVYTMAWFRQAPGKEREFVAAITRSGKTTYYADSVKGRFTISRDNAKNTVNLQMNSLKPDDTAVYYCAAKALLGMTNPAGYEYWGQETQVTVSS | 0.679 nM | no binding (tested: 500 nM to 160 pM) | 3.53 nM
4 | RANKL4 (VHH, not shown: c-myc and His6 tags) VHH: KVQLVESGGGLVQTGDSLRLSCAASGRAIGSYAMGWFRQAPGKEREFVAVINYRGSSLKYADRVKGRFTISRDNAKNMVYLQMNSLKPDDTAVYYCAAQTSGADFGTTPQRYTYWGQGTQVTVSS | 0.38 nM | no binding (tested: 500 nM to 160 pM) | 0.582 nM
5 | RANKL19 (VHH, not shown: c-myc and His6 tags) VHH: EVQLVESGGGLVQAGDSLRLSCAASGRTVTMGWFRQAPGKEREFVASITGSGSVTNYADSVKGRFTISRDNAKNTVFLQMNSLKPEDTAVYYCAAYLPSPYYSSYYDSTKYEYWGQGTQVTVSS | 0.506 nM | no binding (tested: 500 nM to 160 pM) | 2.24 nM
6 | RANKL20 (VHH, not shown: c-myc and His6 tags) VHH: EVQLVESGGGLVQAGDSLRLSCAASGRTFTMGWFRQAPGTEREFVAAISGSGKITNYADSVKGRFTISRDHAKNTVFLQMDSLKPEDTAVYYCAGYLRSPYYSSFYDSAKYEYWGQGTQVTVSS | 0.306 nM | no binding (tested: 500 nM to 160 pM) | 1.36 nM
7 | RANKL14 (VHH, not shown: c-myc and His6 tags) VHH: EVQLVESGGGLVQAGGSLRLSCAASGRTSSYYTMSWFRQDPGKEREFVAAVPLSGNTYYADPVRGRFTISRDNAKNTADLQMNSLKPEDTAVYYCAARASGSIYNRGSYAYWGQGTQVTVSS | 0.574 nM | no binding (tested: 500 nM to 160 pM) | 1.75 nM
8 | RANKL16 (VHH, not shown: c-myc and His6 tags) VHH: EVQLVESGGGLVQAGGSLRLSCVASRRTFSSYAMGWFRQVPGKERDFVAAISTGSITIYGDSVKGRFTISRDNAKNTVYLQMNSLKPEDTAVYYCAAGKREPYLRQYTASNPYDYWGQGTQVTVSS | 0.953 nM | no binding (tested: 500 nM to 160 pM) | 2.25 nM
9 | RANKL21 (VHH, not shown: c-myc and His6 tags) VHH: EVQLVESGGGLVQAGGSLRLSCVASRRTFNSYAVGWFRQVPGEERDFVAAISTGSVTIYADSVKGRFTISRDNAKNTVYLQMNSLKPEDTAVYYCAAGNREPYLRQYTASNPYDYWGQGTQVTVSS | 0.861 nM | no binding (tested: 500 nM to 160 pM) | 1.58 nM
10 | RANKL17 (VHH, not shown: c-myc and His6 tags) VHH: EVQLVESGGGLVQVGDSLRLSCEASGRSRFSTYVMGWFRQAPGKEREFVAAVSWSSGNAYYIDSAKGRFATSRDTAKNIMYLQMNSLKPEDTAVYTCAAGRGYGLLSEYTQAPRYDYWGQGTQVTVSS | 0.453 nM | no binding (tested: 500 nM to 160 pM) | 0.737 nM
